Here are results for one substance from PMC3568127.

The assay has as its target NRP1 (neuropilin 1) expressed from an adenovirus on DU145 cells (UniProt O14786). In words: cell based binding displacement assay (biotinylated ligand, streptavidin-HRP, A450); DU145 cells infected with Ad.NRP1 in 96-well plates; various concentrations of competitor then 1 nM bt-VEGF-A165; binding medium with or without 0.1% BSA; 2 h at room temperature; apparent affinity judged by IC50.

Sequence of NRP1 (neuropilin 1) expressed from an adenovirus on DU145 cells (O14786 22-923): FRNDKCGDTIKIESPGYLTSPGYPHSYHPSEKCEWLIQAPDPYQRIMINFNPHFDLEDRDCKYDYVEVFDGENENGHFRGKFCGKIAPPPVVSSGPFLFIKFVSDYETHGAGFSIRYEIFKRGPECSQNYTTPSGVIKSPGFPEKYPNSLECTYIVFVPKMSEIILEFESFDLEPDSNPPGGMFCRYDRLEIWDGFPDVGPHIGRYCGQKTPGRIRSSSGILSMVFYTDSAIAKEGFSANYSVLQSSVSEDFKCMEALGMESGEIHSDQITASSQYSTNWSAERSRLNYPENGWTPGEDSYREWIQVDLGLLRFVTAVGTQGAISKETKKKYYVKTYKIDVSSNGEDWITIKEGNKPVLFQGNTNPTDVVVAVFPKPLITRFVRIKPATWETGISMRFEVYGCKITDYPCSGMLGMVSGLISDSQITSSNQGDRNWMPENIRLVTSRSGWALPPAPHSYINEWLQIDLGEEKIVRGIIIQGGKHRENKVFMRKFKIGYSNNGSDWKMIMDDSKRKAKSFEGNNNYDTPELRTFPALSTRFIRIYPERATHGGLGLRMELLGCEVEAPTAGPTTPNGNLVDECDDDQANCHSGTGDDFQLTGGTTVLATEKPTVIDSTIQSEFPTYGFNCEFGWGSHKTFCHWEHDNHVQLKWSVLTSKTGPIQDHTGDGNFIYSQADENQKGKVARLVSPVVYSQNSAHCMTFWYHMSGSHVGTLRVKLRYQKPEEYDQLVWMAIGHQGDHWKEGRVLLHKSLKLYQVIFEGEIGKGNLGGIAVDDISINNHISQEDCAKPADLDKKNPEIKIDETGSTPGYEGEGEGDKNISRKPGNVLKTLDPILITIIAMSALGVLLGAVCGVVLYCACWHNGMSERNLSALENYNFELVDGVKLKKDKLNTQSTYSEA

As to “VEGF-A165-HBD (the forms of the cell based assay: with and without the His6-tag)”, the half-maximal inhibitory concentration (IC50) (as a rule, the concentration that inhibits the measured activity by half) was in the range of 100 to 200 nM.
